The record followed here is the supplement of paper PMC9112550, “Optimization of the antimicrobial peptide Bac7 by deep mutational scanning” (BMC Biology, 2022).

The data set has as its system Escherichia coli TOP10. Kind of data set: shrunken log2 fold change of peptide-encoding DNA abundance (4.5 h post-induction vs induction); higher = less antimicrobial activity (less host growth inhibition). The settings on record: time post-induction: 4.5 h; library: site-saturation at positions 5, 18, 19, 20.
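Note: peptides expressed intracellularly from a pBAD plasmid library in pooled LB shake-flask culture, induced with 0.3% L-arabinose, DNA abundance read by NGS, three biological replicates, DESeq2 with apeglm shrinkage.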

Consider RRIRLRPPRLPRPRPRPWGAPRP, for which the “shrunken log2 fold change” value amounted to 0.261.

For the sequence RRIRQRPPRLPRPRPRPKVYPRP, the “shrunken log2 fold change” value was -0.177.

Regarding RRIRWRPPRLPRPRPRPVTWPRP, the “shrunken log2 fold change” value was -0.017.

In the case of RRIRGRPPRLPRPRPRPANLPRP, the “shrunken log2 fold change” value came out at 0.166.

On to RRIRRRPPRLPRPRPRPAGCPRP, for which the “shrunken log2 fold change” value was 0.437.

In the case of RRIRDRPPRLPRPRPRPPITPRP, the “shrunken log2 fold change” value was -0.217.

As for RRIRLRPPRLPRPRPRPWLWPRP, the “shrunken log2 fold change” value was -0.106.

Turning to RRIRLRPPRLPRPRPRPAHCPRP, the “shrunken log2 fold change” value was determined as 0.0914.

As to RRIRARPPRLPRPRPRPWGHPRP, the “shrunken log2 fold change” value amounted to 0.0337.

Turning to RRIRLRPPRLPRPRPRPLTWPRP, the “shrunken log2 fold change” value amounted to 0.0168.

With RRIRHRPPRLPRPRPRPGWCPRP, the “shrunken log2 fold change” value turned out to be 0.399.

For the sequence RRIRARPPRLPRPRPRPWMDPRP, the “shrunken log2 fold change” value is 0.14.

RRIRARPPRLPRPRPRPYRGPRP: the “shrunken log2 fold change” value is -0.213.

For the sequence RRIRMRPPRLPRPRPRPKKFPRP, the “shrunken log2 fold change” value turned out to be 0.358.

Consider RRIRPRPPRLPRPRPRPMPNPRP, for which the “shrunken log2 fold change” value was determined as 0.156.

Take RRIRERPPRLPRPRPRPDWFPRP: the “shrunken log2 fold change” value was -0.00866.

On to RRIRPRPPRLPRPRPRPTRVPRP, for which the “shrunken log2 fold change” value was found to be 0.547.

Take RRIRDRPPRLPRPRPRPDGDPRP: the “shrunken log2 fold change” value was -0.0107.

As to RRIRFRPPRLPRPRPRPTYVPRP, the “shrunken log2 fold change” value is -0.137.

Consider RRIRGRPPRLPRPRPRPLQHPRP, for which the “shrunken log2 fold change” value worked out at 1.18.

Take RRIRNRPPRLPRPRPRPMGWPRP: the “shrunken log2 fold change” value is -0.00822.

For RRIRPRPPRLPRPRPRPQSRPRP, the “shrunken log2 fold change” value is 0.161.

As to RRIRMRPPRLPRPRPRPWCPPRP, the “shrunken log2 fold change” value was -0.101.

In the case of RRIRHRPPRLPRPRPRPPEYPRP, the “shrunken log2 fold change” value came to 0.0328.

Regarding RRIRTRPPRLPRPRPRPTCLPRP, the “shrunken log2 fold change” value was -0.216.

Take RRIRGRPPRLPRPRPRPNWEPRP: the “shrunken log2 fold change” value was 0.21.

As to RRIRIRPPRLPRPRPRPCRVPRP, the “shrunken log2 fold change” value was -1.39.

In the case of RRIRFRPPRLPRPRPRPNWAPRP, the “shrunken log2 fold change” value turned out to be 0.00252.

In the case of RRIRNRPPRLPRPRPRPFKIPRP, the “shrunken log2 fold change” value was -0.0688.

Take RRIRGRPPRLPRPRPRPGRAPRP: the “shrunken log2 fold change” value is 0.84.

For RRIRHRPPRLPRPRPRPFAWPRP, the “shrunken log2 fold change” value is -0.186.

As for RRIRGRPPRLPRPRPRPDTRPRP, the “shrunken log2 fold change” value came to 0.162.

For the sequence RRIRIRPPRLPRPRPRPQSWPRP, the “shrunken log2 fold change” value was -0.0752.

RRIRLRPPRLPRPRPRPSNCPRP: the “shrunken log2 fold change” value was -0.581.

In the case of RRIRGRPPRLPRPRPRPDRGPRP, the “shrunken log2 fold change” value is -0.123.

With RRIRLRPPRLPRPRPRPHEAPRP, the “shrunken log2 fold change” value turned out to be 0.107.

For RRIRHRPPRLPRPRPRPNTKPRP, the “shrunken log2 fold change” value was -0.0741.

In the case of RRIRRRPPRLPRPRPRPLQAPRP, the “shrunken log2 fold change” value stood at 0.98.

Take RRIRYRPPRLPRPRPRPCTMPRP: the “shrunken log2 fold change” value is -0.347.

Take RRIRFRPPRLPRPRPRPDAVPRP: the “shrunken log2 fold change” value is -0.0144.

For RRIRTRPPRLPRPRPRPTEKPRP, the “shrunken log2 fold change” value is 0.015.

As to RRIRDRPPRLPRPRPRPWYIPRP, the “shrunken log2 fold change” value was -0.0219.

For RRIRCRPPRLPRPRPRPSACPRP, the “shrunken log2 fold change” value is -0.0897.

For the sequence RRIRARPPRLPRPRPRPLKVPRP, the “shrunken log2 fold change” value was -0.0599.

Regarding RRIRERPPRLPRPRPRPYGEPRP, the “shrunken log2 fold change” value was -0.0274.

For the sequence RRIRTRPPRLPRPRPRPANPPRP, the “shrunken log2 fold change” value was determined as 0.0504.

For the sequence RRIRDRPPRLPRPRPRPFDVPRP, the “shrunken log2 fold change” value amounted to 0.016.

For RRIRPRPPRLPRPRPRPYCMPRP, the “shrunken log2 fold change” value was -0.505.

Regarding RRIRKRPPRLPRPRPRPEKAPRP, the “shrunken log2 fold change” value was 0.0283.

For the sequence RRIRTRPPRLPRPRPRPCRGPRP, the “shrunken log2 fold change” value was -0.398.

For RRIRFRPPRLPRPRPRPNNDPRP, the “shrunken log2 fold change” value was -0.673.

Take RRIRRRPPRLPRPRPRPEYEPRP: the “shrunken log2 fold change” value is -0.022.

In the case of RRIRMRPPRLPRPRPRPHKNPRP, the “shrunken log2 fold change” value was 0.195.

For the sequence RRIRVRPPRLPRPRPRPPLAPRP, the “shrunken log2 fold change” value turned out to be 0.425.

Consider RRIRARPPRLPRPRPRPCRWPRP, for which the “shrunken log2 fold change” value amounted to 0.26.

Turning to RRIRGRPPRLPRPRPRPEYFPRP, the “shrunken log2 fold change” value was determined as 0.11.

For the sequence RRIRLRPPRLPRPRPRPMFSPRP, the “shrunken log2 fold change” value is -0.267.

Take RRIRRRPPRLPRPRPRPGQIPRP: the “shrunken log2 fold change” value came to 0.0802.

As for RRIRVRPPRLPRPRPRPGDAPRP, the “shrunken log2 fold change” value was 0.0792.

Take RRIRPRPPRLPRPRPRPHVAPRP: the “shrunken log2 fold change” value came out at 0.218.

Consider RRIRYRPPRLPRPRPRPGEIPRP, for which the “shrunken log2 fold change” value was -0.0481.

As to RRIRVRPPRLPRPRPRPRMFPRP, the “shrunken log2 fold change” value is -0.0394.

RRIRVRPPRLPRPRPRPREDPRP: the “shrunken log2 fold change” value stood at 0.489.

RRIRSRPPRLPRPRPRPCEFPRP: the “shrunken log2 fold change” value is -0.227.

On to RRIRNRPPRLPRPRPRPVNFPRP, for which the “shrunken log2 fold change” value is -0.157.

As to RRIRTRPPRLPRPRPRPGFAPRP, the “shrunken log2 fold change” value is 0.33.

As for RRIRDRPPRLPRPRPRPQKSPRP, the “shrunken log2 fold change” value is -0.11.

On to RRIRDRPPRLPRPRPRPNSSPRP, for which the “shrunken log2 fold change” value was -0.675.

Consider RRIRNRPPRLPRPRPRPTRMPRP, for which the “shrunken log2 fold change” value is 0.245.

Consider RRIRSRPPRLPRPRPRPCFFPRP, for which the “shrunken log2 fold change” value is -0.248.

As to RRIRCRPPRLPRPRPRPHQNPRP, the “shrunken log2 fold change” value was -0.276.

On to RRIRHRPPRLPRPRPRPTGEPRP, for which the “shrunken log2 fold change” value was -0.0103.

Regarding RRIRHRPPRLPRPRPRPDPPPRP, the “shrunken log2 fold change” value was determined as 0.232.

With RRIRVRPPRLPRPRPRPLENPRP, the “shrunken log2 fold change” value was 0.124.

With RRIRKRPPRLPRPRPRPMCPPRP, the “shrunken log2 fold change” value turned out to be 0.199.

RRIRNRPPRLPRPRPRPGIKPRP: the “shrunken log2 fold change” value is -0.192.

Regarding RRIRARPPRLPRPRPRPPQTPRP, the “shrunken log2 fold change” value turned out to be 0.9.

RRIRRRPPRLPRPRPRPRTHPRP: the “shrunken log2 fold change” value was 0.108.

Consider RRIRHRPPRLPRPRPRPWREPRP, for which the “shrunken log2 fold change” value was -0.0297.

Turning to RRIRCRPPRLPRPRPRPANKPRP, the “shrunken log2 fold change” value worked out at 0.361.

RRIRHRPPRLPRPRPRPSRMPRP: the “shrunken log2 fold change” value was -0.518.

As for RRIRKRPPRLPRPRPRPMIEPRP, the “shrunken log2 fold change” value stood at 0.0881.

Turning to RRIRFRPPRLPRPRPRPHIGPRP, the “shrunken log2 fold change” value was -0.482.

On to RRIRTRPPRLPRPRPRPRKYPRP, for which the “shrunken log2 fold change” value is -0.809.

With RRIRLRPPRLPRPRPRPVGHPRP, the “shrunken log2 fold change” value stood at 0.306.

Regarding RRIRQRPPRLPRPRPRPTESPRP, the “shrunken log2 fold change” value is 0.105.

As for RRIRERPPRLPRPRPRPNWCPRP, the “shrunken log2 fold change” value was -0.0117.

Regarding RRIRRRPPRLPRPRPRPMHDPRP, the “shrunken log2 fold change” value was 0.117.

RRIRFRPPRLPRPRPRPGVSPRP: the “shrunken log2 fold change” value turned out to be 0.323.

In the case of RRIRSRPPRLPRPRPRPDLTPRP, the “shrunken log2 fold change” value was 0.0442.

For RRIRWRPPRLPRPRPRPIELPRP, the “shrunken log2 fold change” value was -0.0796.

For the sequence RRIRCRPPRLPRPRPRPDEDPRP, the “shrunken log2 fold change” value is -0.0684.

Turning to RRIRPRPPRLPRPRPRPNKSPRP, the “shrunken log2 fold change” value is 0.408.

With RRIRHRPPRLPRPRPRPGSAPRP, the “shrunken log2 fold change” value was found to be 0.323.

Take RRIRCRPPRLPRPRPRPNDCPRP: the “shrunken log2 fold change” value was -0.0147.

Turning to RRIRPRPPRLPRPRPRPNNIPRP, the “shrunken log2 fold change” value is -0.848.

For RRIRFRPPRLPRPRPRPNDGPRP, the “shrunken log2 fold change” value is -0.222.

As to RRIRMRPPRLPRPRPRPCYHPRP, the “shrunken log2 fold change” value is -0.265.

On to RRIRNRPPRLPRPRPRPVAFPRP, for which the “shrunken log2 fold change” value is -0.119.

On to RRIRRRPPRLPRPRPRPEWTPRP, for which the “shrunken log2 fold change” value turned out to be 0.0215.

For RRIRPRPPRLPRPRPRPITGPRP, the “shrunken log2 fold change” value was -0.189.

As for RRIRCRPPRLPRPRPRPDHGPRP, the “shrunken log2 fold change” value is -0.234.

As to RRIRARPPRLPRPRPRPPSNPRP, the “shrunken log2 fold change” value was found to be 0.195.

For RRIRARPPRLPRPRPRPRYLPRP, the “shrunken log2 fold change” value was -0.351.

Consider RRIRVRPPRLPRPRPRPFMAPRP, for which the “shrunken log2 fold change” value was -0.128.

RRIRNRPPRLPRPRPRPWQIPRP: the “shrunken log2 fold change” value is -0.102.

As for RRIRVRPPRLPRPRPRPFGRPRP, the “shrunken log2 fold change” value is 0.0302.

For the sequence RRIRGRPPRLPRPRPRPACGPRP, the “shrunken log2 fold change” value came out at 0.967.

In the case of RRIRDRPPRLPRPRPRPSMDPRP, the “shrunken log2 fold change” value was -0.0183.

Take RRIRFRPPRLPRPRPRPLACPRP: the “shrunken log2 fold change” value was -0.162.

RRIRDRPPRLPRPRPRPYSAPRP: the “shrunken log2 fold change” value was -0.0545.

In the case of RRIRRRPPRLPRPRPRPTIHPRP, the “shrunken log2 fold change” value was -0.0346.

With RRIRHRPPRLPRPRPRPDCLPRP, the “shrunken log2 fold change” value was -0.228.

RRIRQRPPRLPRPRPRPMANPRP: the “shrunken log2 fold change” value is -0.18.

As to RRIRCRPPRLPRPRPRPMMVPRP, the “shrunken log2 fold change” value was -0.659.

For the sequence RRIRYRPPRLPRPRPRPKEQPRP, the “shrunken log2 fold change” value came out at 0.00489.

Consider RRIRFRPPRLPRPRPRPCLKPRP, for which the “shrunken log2 fold change” value was -0.148.

As for RRIRWRPPRLPRPRPRPNRHPRP, the “shrunken log2 fold change” value turned out to be 0.0506.

With RRIRPRPPRLPRPRPRPSGIPRP, the “shrunken log2 fold change” value is -0.126.

As for RRIRNRPPRLPRPRPRPTQWPRP, the “shrunken log2 fold change” value amounted to 0.425.

As for RRIRVRPPRLPRPRPRPKCHPRP, the “shrunken log2 fold change” value is -0.242.

For the sequence RRIRIRPPRLPRPRPRPVFDPRP, the “shrunken log2 fold change” value was -0.371.

Regarding RRIRIRPPRLPRPRPRPVIPPRP, the “shrunken log2 fold change” value is -0.358.

RRIRERPPRLPRPRPRPPEGPRP: the “shrunken log2 fold change” value was found to be 0.233.

For the sequence RRIRWRPPRLPRPRPRPNDFPRP, the “shrunken log2 fold change” value is -0.0161.
